This is an account of results in the supplement of paper PMC11246515.

± gives the standard deviation of the averaged measurements.

A short description of the series: total protein half-life in vivo (active degradation + dilution); higher = more stable protein.
[1] abbreviates: E. coli NCM3722 delta-clpP delta-lon delta-hslV, growth: N-lim chemostat, doubling time 6 h.
[2] abbreviates: E. coli NCM3722 delta-clpP, growth: N-lim chemostat, doubling time 6 h.
The mark [3] stands for this setting: E. coli NCM3722 delta-hslV, growth: N-lim chemostat, doubling time 6 h.
The mark [4] stands for this setting: E. coli NCM3722 delta-lon, growth: N-lim chemostat, doubling time 6 h.
Where [5] appears, read: E. coli NCM3722 delta-smpB, growth: N-lim chemostat, doubling time 6 h.
Where [6] appears, read: wild type E. coli NCM3722, growth: C-lim chemostat, doubling time 3 h.
Where [7] appears, read: wild type E. coli NCM3722, growth: C-lim chemostat, doubling time 6 h.
Setting [8] is: wild type E. coli NCM3722, growth: C-lim chemostat, doubling time 12 h.
Setting [9] is: wild type E. coli NCM3722, growth: N-lim chemostat, doubling time 6 h.
Setting [10] is: wild type E. coli NCM3722, growth: N-lim chemostat, doubling time 12 h.
[11] abbreviates: wild type E. coli NCM3722, growth: P-lim chemostat, doubling time 6 h.
Where [12] appears, read: wild type E. coli NCM3722, growth: P-lim chemostat, doubling time 12 h.

In the case of “MSRRAGTPTAKKVTQLVNVEEHVEGFRQVREAHRRELIDDYVELISDLIREVGEARQVDMAARLGVSQPTVAKMLKRLATMGLIEMIPWRGVFLTAEGEKLAQESRERHQIVENFLLVLGVSPEIARRDAEGMEHHVSEETLDAFRLFTQKHGAK [P0A9F1]”, the “total protein half-life in vivo” value was 5.72 ± 0.35 h under setting [1]; 5.64 ± 0.32 h under setting [2]; 4.73 ± 0.12 h under setting [3]; 6 ± 0.3 h under setting [4]; 5.06 ± 0.61 h under setting [5]; 3 ± 0.046 h under setting [6]. The “total protein half-life in vivo” value amounted to 5.03 ± 0.24 h under setting [7]; 12 ± 5.5 h under setting [8]; 4.66 ± 0.23 h under setting [9]; 9.78 ± 2.5 h under setting [10]; 3.96 ± 0.21 h under setting [11]; 8.06 ± 0.26 h under setting [12].
Take “MSQSLFSQPLNVINVGIAMFSDDLKKQHVEVTQLDWTPPGQGNMQVVQALDNIADSPLADKIAAANQQALERIIQSHPVLIGFDQAINVVPGMTAKTILHAGPPITWEKMCGAMKGAVTGALVFEGLAKDLDEAAELAASGEITFSPCHEHDCVGSMAGVTSASMFMHIVKNKTYGNIAYTNMSEQMAKILRMGANDQSVIDRLNWMRDVQGPILRDAMKIIGEIDLRLMLAQALHMGDECHNRNNAGTTLLIQALTPGIIQAGYSVEQQREVFEFVASSDYFSGPTWMAMCKAAMDAAHGIEYSTVVTTMARNGVEFGLRVSGLPGQWFTGPAQQVIGPMFAGYKPEDSGLDIGDSAITETYGIGGFAMATAPAIVALVGGTVEEAIDFSRQMREITLGENPNVTIPLLGFMGVPSAIDITRVGSSGILPVINTAIAHKDAGVGMIGAGIVHPPFACFEKAILGWCERYGV”: the “total protein half-life in vivo” value was determined as 5.39 ± 0.44 h under setting [1]; 4.45 h under setting [7]; 7.84 h under setting [8]; 2.89 h under setting [9]; 4.45 h under setting [10]; 8.94 ± 0.66 h under setting [12].
As for “MQQSTPYLSFRGIGKTFPGVKALTDISFDCYAGQVHALMGENGAGKSTLLKILSGNYAPTTGSVVINGQEMSFSDTTAALNAGVAIIYQELHLVPEMTVAENIYLGQLPHKGGIVNRSLLNYEAGLQLKHLGMDIDPDTPLKYLSIGQWQMVEIAKALARNAKIIAFDEPTSSLSAREIDNLFRVIRELRKEGRVILYVSHRMEEIFALSDAITVFKDGRYVKTFTDMQQVDHDALVQAMVGRDIGDIYGWQPRSYGEERLRLDAVKAPGVRTPISLAVRSGEIVGLFGLVGAGRSELMKGMFGGTQITAGQVYIDQQPIDIRKPSHAIAAGMMLCPEDRKAEGIIPVHSVRDNINISARRKHVLGGCVINNGWEENNADHHIRSLNIKTPGAEQLIMNLSGGNQQKAILGRWLSEEMKVILLDEPTRGIDVGAKHEIYNVIYALAAQGVAVLFASSDLPEVLGVADRIVVMREGEIAGELLHEQADERQALSLAMPKVSQAVA [P0AAF3]”, the “total protein half-life in vivo” value was 5.15 h under setting [3]; 2.45 ± 0.57 h under setting [5]; 2.228 ± 0.021 h under setting [6]; 3.922 ± 0.021 h under setting [7]; 5.96 ± 0.79 h under setting [8]; 6.06 h under setting [10]. Also, under setting [12], the “total protein half-life in vivo” value stood at 10.5 h.
For “MQVFIMRHGDAALDAASDSVRPLTTNGCDESRLMANWLKGQKVEIERVLVSPFLRAEQTLEEVGDCLNLPSSAEVLPELTPCGDVGLVSAYLQALTNEGVASVLVISHLPLVGYLVAELCPGETPPMFTTSAIASVTLDESGNGTFNWQMSPCNLKMAKAI”, the “total protein half-life in vivo” value under setting [1] was 4.59 ± 0.56 h; the “total protein half-life in vivo” value under setting [2] worked out at 4.209 ± 0.026 h; the “total protein half-life in vivo” value under setting [3] is 0.943 ± 0.06 h; the “total protein half-life in vivo” value under setting [4] is 0.853 ± 0.11 h; the “total protein half-life in vivo” value under setting [5] stood at 1.03 ± 0.01 h; the “total protein half-life in vivo” value under setting [6] was 1.06 ± 0.013 h. Also, the “total protein half-life in vivo” value is, setting by setting: under setting [7], 1.35 ± 0.12 h; under setting [8], 1.57 ± 0.41 h; under setting [9], 1.13 ± 0.12 h; under setting [10], 1.5 ± 0.33 h; under setting [11], 1.25 ± 0.38 h; under setting [12], 2.5 ± 0.88 h.
Regarding “MFKNAFANLQKVGKSLMLPVSVLPIAGILLGVGSANFSWLPAVVSHVMAEAGGSVFANMPLIFAIGVALGFTNNDGVSALAAVVAYGIMVKTMAVVAPLVLHLPAEEIASKHLADTGVLGGIISGAIAAYMFNRFYRIKLPEYLGFFAGKRFVPIISGLAAIFTGVVLSFIWPPIGSAIQTFSQWAAYQNPVVAFGIYGFIERCLVPFGLHHIWNVPFQMQIGEYTNAAGQVFHGDIPRYMAGDPTAGKLSGGFLFKMYGLPAAAIAIWHSAKPENRAKVGGIMISAALTSFLTGITEPIEFSFMFVAPILYIIHAILAGLAFPICILLGMRDGTSFSHGLIDFIVLSGNSSKLWLFPIVGIGYAIVYYTIFRVLIKALDLKTPGREDATEDAKATGTSEMAPALVAAFGGKENITNLDACITRLRVSVADVSKVDQAGLKKLGAAGVVVAGSGVQAIFGTKSDNLKTEMDEYIRNH”, the “total protein half-life in vivo” value under setting [1] came to 6.96 ± 0.44 h; the “total protein half-life in vivo” value under setting [2] amounted to 6.21 ± 0.099 h; the “total protein half-life in vivo” value under setting [3] is 6.68 ± 1.2 h; the “total protein half-life in vivo” value under setting [4] came to 6.75 ± 0.38 h; the “total protein half-life in vivo” value under setting [5] amounted to 6.19 ± 0.17 h; the “total protein half-life in vivo” value under setting [6] was found to be 3.54 ± 0.097 h. For the same sequence, the “total protein half-life in vivo” value reads like this: under setting [7], 6.88 ± 0.64 h; under setting [8], 13.4 ± 2.5 h; under setting [9], 5.92 ± 0.44 h; under setting [10], 11.8 ± 0.38 h; under setting [11], 5.86 ± 0.2 h; under setting [12], 11.7 ± 1.6 h.
For the sequence “MFDIGVNLTSSQFAKDRDDVVACAFDAGVNGLLITGTNLRESQQAQKLARQYSSCWSTAGVHPHDSSQWQAATEEAIIELAAQPEVVAIGECGLDFNRNFSTPEEQERAFVAQLRIAADLNMPVFMHCRDAHERFMTLLEPWLDKLPGAVLHCFTGTREEMQACVAHGIYIGITGWVCDERRGLELRELLPLIPAEKLLIETDAPYLLPRDLTPKPSSRRNEPAHLPHILQRIAHWRGEDAAWLAATTDANVKTLFGIAF”, the “total protein half-life in vivo” value runs as follows: under setting [1], 5.07 ± 0.43 h; under setting [2], 4.32 ± 0.31 h; under setting [4], 5.25 ± 0.68 h; under setting [5], 3.97 ± 0.48 h; under setting [6], 2.67 h; under setting [7], 5.44 ± 0.34 h. Moreover, the “total protein half-life in vivo” value turned out to be 8.95 ± 0.15 h under setting [8]; 5.25 ± 1 h under setting [9]; 8.13 ± 1.8 h under setting [10]; 4.15 ± 0.38 h under setting [11]; 9.01 ± 0.23 h under setting [12].
